# Data from patent US20090247540A1 (published 2009).
# Assays:
# [1] = biological target: the molecule itself; test: cell surface cross-linking with DSP, immunoprecipitation, SDS-PAGE
# crystal structure = biological target: the molecule itself; test: crystal structure
Protein,binding result [1],binding result (crystal structure)
"EphB2 on PC-3 cells (receptor, human, UniProt P29323 19-1055, looked up, whole, on cells) VEETLMDSTTATAELGWMVHPPSGWEEVSGYDENMNTIRTYQVCNVFESSQNNWLRTKFIRRRGAHRIHVEMKFSVRDCSSIPSVPGSCKETFNLYYYEADFDSATKTFPNWMENPWVKVDTIAADESFSQVDLGGRVMKINTEVRSFGPVSRSGFYLAFQDYGGCMSLIAVRVFYRKCPRIIQNGAIFQETLSGAESTSLVAARGSCIANAEEVDVPIKLYCNGDGEWLVPIGRCMCKAGFEAVENGTVCRGCPSGTFKANQGDEACTHCPINSRTTSEGATNCVCRNGYYRADLDPLDMPCTTIPSAPQAVISSVNETSLMLEWTPPRDSGGREDLVYNIICKSCGSGRGACTRCGDNVQYAPRQLGLTEPRIYISDLLAHTQYTFEIQAVNGVTDQSPFSPQFASVNITTNQAAPSAVSIMHQVSRTVDSITLSWSQPDQPNGVILDYELQYYEKELSEYNATAIKSPTNTVTVQGLKAGAIYVFQVRARTVAGYGRYSGKMYFQTMTEAEYQTSIQEKLPLIIGSSAAGLVFLIAVVVIAIVCNRRGFERADSEYTDKLQHYTSGHMTPGMKIYIDPFTYEDPNEAVREFAKEIDISCVKIEQVIGAGEFGEVCSGHLKLPGKREIFVAIKTLKSGYTEKQRRDFLSEASIMGQFDHPNVIHLEGVVTKSTPVMIITEFMENGSLDSFLRQNDGQFTVIQLVGMLRGIAAGMKYLADMNYVHRDLAARNILVNSNLVCKVSDFGLSRFLEDDTSDPTYTSALGGKIPIRWTAPEAIQYRKFTSASDVWSYGIVMWEVMSYGERPYWDMTNQDVINAIEQDYRLPPPMDCPSALHQLMLDCWQKDRNHRPKFGQIVNTLDKMIRNPNSLKAMAPLSSGINLPLLDRTIPDYTSFNTVDEWLEAIKMGQYKESFANAGFTSFDVVSQMMMEDILRVGVTLAGHQKKILNSIQVMRAQMNQIQSVEGQPLARRPRATGRTKRCQPRDVTKKTCNSNDGKKKGMGKKKTDPGRGREIQGIFFKEDSHKESNDCSCGG",no binding,–
"EphA2 ligand-binding domain (receptor, The crystallised domain; It forms dimers in the crystal; also called EphA2 LBD; EphA2-LBD) EVVLLDFAAAGGELGWLTHPYGKGWDLMQNIMNDMPIYMYSVCNVMSGDQDNWLRTNWVYRGEAERIFIELKFTVRDCNSFPGGASSCKETFNLYYAESDLDYGTNFQKRLFTKIDTIAPDEITVSSDFEARHVKLNVEERSVGPLTRKGFYLAFQDIGACVALLSVRVYYKKC",–,binds
